Experiment: soluble on expression in E. coli; label from the status in PepcDB or PDB records

Sequence | soluble on expression in E. coli
MSLNVLIIGAGAVGLCLAAKLSNVADVFAVTRERNAKIIRESGFKMTGIWGEGTFNFEASENVPERDFDYIIISSKGLATKSICEQFKDVINGKNVISMQNGVGNEEIILRYTDKVIGGTIITGFEWKGDAKVHVSVEGGPMTVGRFPNGTDKEVTDFVKLIKSSGIPVNETENIQGAIWSKTIYNCALNPLGAVMNVPYGELSNEHSWNIIKNIVSEIFEITSKKGVILPWKTSEEYLKYLKEFQLPNTAAHHSSMLQDISKGNITEIDFLNGAVVTIAKEFGIKTPYNKFITEQIKFLENLKSKKEGHHHHHH | soluble
MSLNVLIVDDEANIRKTLTVFMESRGHRVKAVSNSRDACAEAEQQVFDLAFVDIRLGIESGLDLERSLLNACPWIKIVIITAYASIETAVEAMKRGASDYLAKPFTPDQLESITARLAEVCAMEMRIASLQEDLNRMHPEVYFTSRYPSMQRAIELSRQVALSDALVLLRGPSGTGKTVLARSIHNWSQRKEEPFGVVSCPSLSTELLESELFGHVKGSFPGAVRDKPGRVTLCEGGSLFLDEIGDLPLSIQAKLLRFIQDREYERIGDHQTRKADVRIIAATNTNLDLAVREGEFREDLFYRLNGIQIDLPTLAERPNDVEQLALNMLQFFAAQNLKNFDGFTEEARTALRTYSWPGNIRELRNVMERAVILGKNGQIGIELLPDSIVAKTHPVTEGHHHHHH | soluble
MSLNVVVQKYGGSSVATPERIKNVAQRIKKKVDEGYKVVVVVSAMGKTTDNLIKLAKEISPRPDSRELDMLLATGEQVSAALLSMALKDLGVKAKSLNAFQVKIKTTPHHTSARIVDIDDSVIRENLKDYDVLVVTGFQGVNEHGDLTTLGRGGSDTSAVALAAKLRVPCEIYSDVDGIYTCDPRVHPRAKKLAYITYDEALELTALGAKVLHSRSVEIAKKYGIPIYCASSFTEEEGTMVVERLPEWLEEPVVTGATISHGQIKVSISFLPKDVKYITAIFEEVGKRALNVDMISLVPSNGKVFLSFTILEDHKEDLDEALKEALRDVEGWKSTYEGGFAKLSIVGVGMRTSPGVAARFFEALERAGVTPELVTTSEIKISCLVPEEKAEEALKSVIEEFELEGHHHHHH | soluble
MSLNYKNYTVMLVDDEQPILNSLKRLIKRLGCNIITFTSPLDALEALKGTSVQLVISDMRMPEMGGEVFLEQVAKSYPDIERVVISGYADAQATIDAVNRGKISRFLLKPWEDEDVFKVVEKGLQLAFLREENLRLQEETEAKNKQEGHHHHHH | soluble
MSLNYSHAFHAGNHADVLKHIVLLALLDGLVRKETPFFVLDSHAGRGRYLLSAGESRNTREAESGVMRLIARPQRLEVIKRYVDVVQADNVSQTRAASTPMHISRYPGSSLLAAQVCRAQDRMVFCELHPKEAAALNALFVHDPRVRVHAGDGYAAVRAFLPPKVGTQRIGRGLVFIDPPYEAQDAEYPLVLGALRETLTRWPQAICAVWYPIKQRRRLQPFFRKAVGLPVRSVLIAELLVRLDDSPLRLNGSGMLLLNVPWQFDQLLAPALPVLKTQLGESGARTRLEWLKVPQEGHHHHHH | not soluble
MSLNYSVLPPEINSLRMFTGAGSAPMLAASVAWDRLAAELAVAASSFGSVTSGLAGQSWQGAAAAAMAAAAAPYAGWLAAAAARAAGASAQAKAVASAFEAARAATVHPMLVAANRNAFVQLVLSNLFGQNAPAIAAAEAMYEQMWAADVAAMVGYHGGASAAAAQLSSWSIGLQQALPEGHHHHHH | soluble
MSLPPSQSDRDPFSVTMCHSTLASLPLVYACSGCSSVAQLANTFAVRLDRSGAAEMSCISGVGGGVPALTRVARSGRPILALDGCALSCVKACLASVDVVPDRHLVLNRLGATKRQHGVCTEAEEAETWDAVQQALAEVRGAMEGHHHHHH | soluble
MSLQAANLRQSRSMTLGLIVTEIINPYFAELAMAVDQIAHDAGYTIFIGYSRDHADRQHEIISSMIERQVDGILLLPAPDTDPEKLAKQVNAAGVPVVLLARRFAGFDYVGSENVKGATILGDHLSALGCRSVAFLGGLTASSLAEREEGLRASLEPRGCDVWSVDEFRSPITPEGGVAAVGRLFDQGKLPDAIIAYNDAVAQGIYDEMRRRGLEPGRDLAVASFDDTRIAASQVPPMTSVAGFPQEIGAKGAEMLMTRLADGNEDIPTQLTLIQPQLKIRSSTATWRREGHHHHHH | soluble
MSLQAVTLSVLVVEDTDCERFYITHLLRQFGWLVESRSNGKAALDYLQQNEVHILVSDWRMPEMSGIELCQIVKNNHLPPFVILLTANNQTADIVLGIEAGADDFICKPFLPELLKVRMLAAMRIVQLQHNLSRNEGHHHHHH | not soluble
MSLQDLTINAIGAQGDGLARTADGKPAFVPLTLPGEVVRAKMDGARGEVVEILAPSPERVAPACRHYGVCGGCALQHWAAEPYRAWKAEQVRLQLSMEGLETEILPTFAAPPASRRRVALHARKGGKGQGARLGFKERRSWNLVSIEECPVTDPRLVAALPALARLAEPFLEHPKSAPTLHVTLTATGLDIDITGVERKSGGLSADARMRAAMAAGEGDFARVTLAGETIYGARQPLVKLGQAVVALPPGSFLQAVPAAEKAMVELAVAEAQGASRVADLYCGVGTFTFPLAEVAQVYAAEMSAPAITALKAAIGGAPGLKPITAEARDLVRRPVLSTELAKTDVVVIDPPRAGAAEQTVEIAKSKVAKVLGVSCNPQTFAKDARVLVDAGFKLVRVTPVDQFVWSPHIELVGVFTREGHHHHHH | soluble
MSLQEWTKEDSLRLRKLLDSDQELNLNQDAVRQIDFGSAVGTPRMSVEKKWMLPDESLPEALPKPKVVLSLMPYKANTPYNWDPVFQKKIRMDKNTWRGDPHYEMRHQRSYSNWAHNPMAGGVRKSLEEIRASGVRFRQLSERANGMMVNSVVMDSPIPLFGGSGVYINGGTIGGLDLMAVFTKNFWDKKGKERRERTLEVLRTYGDSTTVLINRPIEQIAREGHHHHHH | soluble
MSLQINVNPQAALSQNAIVNNSSFSLVSKDVRSAQYVALVDSGRNNIEPIHPRQNVRITLENALAEQFGSQGFRLSVNSENTITLEIQELLVSVKHSIMENQMDGSVVLEITAETPRGKLVKSYTGTAKRTGVLSASNDEIETVLNDVINTVLKEIANDAELQNYMQERFNGEGHHHHHH | soluble
MSLQKQRFCLDTTAITDSDVRKSLGVSNISESAEKIMDIIAQARVQLDISCHIPYDTVYKELVGFLTREGCAPETLIKVDTWLVKKTPNRYEIKIPAEIFYEYIKDLRERINKGMRISENAMYETALEAYILSKPDEKDREDVLNEVLSKTVNSFRVKYRNALRGGTLDSAPDLDVLLLAKELDAAVVANDEGIEKWAQRLGLRFVNARDFPFILQEYLDLWDKKEGHHHHHH | soluble
MSLQNMETRYTHSPADIRHYSTEQLRDEFLVEKVFIPGAISLTYTHNDRMIFGGVTPTTEELEIILDKELGVDYFLERRELGVINIGGPGFIEIDGAKETMKKQDGYYIGKETKHVRFSSENPDNPAKFYISCVPAHHKYPNVKISIDEITPMETGDPLTLNQRKIYQYIHPNVCESCQLQMGYTILEPGSAWNTMPCHTHERRMEAYVYFDMEEDTRIFHMMGKPDETKHLVMSNEQAAISPSWSIHSGVGTSNYSFIWAMCGENITYTDMDMVAMDQLKEGHHHHHH | soluble
MSLQPILQLLEKDEQREALHYFIEKLPQLKEATESMEEKITFIQHVMNDKQTLESLFAEWEAKAAPFRLTSEHFEAIATLIQLLPTLVQWLQKAEEFVSFVTSVMNDRESMAYLTKGIKDIVPIGKGLDILKETNERFACERDSTTVSLLRIYRLLKHPIVQDGVKYIETLLDVASKHK | not soluble
MSLQRYFIELTKQQIEEAPTFSITGEEVHHIVNVMRMNEGDQIICCSQDGFEAKCELQSVSKDKVSCLVIEWTNENRELPIKVYIASGLPKGDKLEWIIQKGTELGAHAFIPFQAARSVVKLDDKKAKKKRERWTKIAKEAAEQSYRNEVPRVMDVHSFQQLLQRMQDFDKCVVAYEESSKQGEISAFSAIVSSLPKGSSLLIVFGPEGGLTEAEVERLTEQDGVTCGLGPRILRTETAPLYALSAISYQTELLRGDQEGGSHHHHHH | soluble
MSLQSDMLAQSDMLACREMIKEGSHTFHAASKVLPRRISDPAIALYAFCRVADDAVDLGLDRAAAVELLKDRLDRACRGVPRAYPSDRAFADVVARFSIPPAIPEALIEGLEWDAQGRRFETLSDLYSYCARVAGTVGVMMTLVMGQRKPDIVARACDLGCAMQLTNIARDIGEDARNGRIYMPLSWMREAGLDPETWLANPKFTPEIASIVKRLIDTADALYDRATLGIANLPRSCRPGIFAARALYAEIGREVERSGLDSVSSRAVVSTGRKLAVLARLLAFQETEWAPAKYLPAKFGDMEETKFLVDAVIAHPVREGHHHHHH | soluble
MSLQSFRVQCPTSTITHNPNSNFPGGIKCQQISGGDGYSTMADGVQTYMFSFGPLSGLADIRNGLPGTQPASIFNTLGNPYTDTTFNGAVGLTPDPDSVPPNQIDGHVDPRPIMDIGVMNGNIPAPLMAIDEDDEFFLTLTNVGMIMRPDLFERHTVHFHGYPNASSFYDGVPDASVAINIGGSFTYYYLAPDAGTYFWHCHITPPEHLQMGMVGQIYVRPRQDRVPAGAALYTALVGQQADLRTACGTTDVLCSTPLPPTNAVKRLNNKNGTPTLYAYNDGDGSTAYDVEYPIQIHGFDPNFHFIGMTFNPEPFTDMKDKYFMLNGRSYPDTITPGPMTTPSSDGALHYSQPLPTVINIPAGGKALLRISNLDVTEYQTLASLGIPMHVIGINARLLRDMAGGDMTYYANSITLGGGESLDVLLDASDTSSYPRGSTFYLYTPNLDHLSNDAENFGGLMTEVHICGAVDPATKQCTEGHHHHHH | not soluble
MSLQSVKVNIPFWLTGSPNVGFEYTLTRQLTVNGEVLWMPYLFKKHEEVFRALQSSVELRYYVNPRNFYTNDSWDGFYIGPYAMYGNFNIGLLKHNDPLQSYRRKGWGVSGGISTGYKFAFNSRWGLDLNIGLGYAHLQYNKYYLGGEYVNFPLERKKTKRWIGPTKFGINLTYNIFREGHHHHHH | not soluble
MSLQVEKISIIGLGLIGGSLAKALKEKLGIESITAVDINEKSLSQALKEGFIKEGFTELNESVYNSDIIFICTPVKDAVEYITRLHGKVKAGCILTDTASTKGEIIDYVNSLDNPPCFIGGHPMAGTEKAGFSSSFSHLFENAYYIMSPSKNCPEESLEYLAEIIRGIGAIPIKLDSKEHDIITATISHVPHVIASALVNLVKFSDSPDGKMQTLAAGGFKDITRIASSNPKMWENIILSNKEIVKSTLNKFTETINTFIEYIDNENSNGIYNFFDSAKKFRDSIPNNRKGLIEPQNELIVDVVDKPGIIGEIATILGNNGINIKNINVSNSREFEQGCLRITLPDSGSVAEAYELLAKKGYKVFKIEGHHHHHH | soluble
MSLRERNQVIPVLPPQERPRPTVVFDCEDFLVKKRFSFFNLDFLVTGRAFADLFLFHAAHIYELVHVSGSPGSFSRLLLHRIDPYGCISYKVYCKDKKTFSSEHLNRPLQRVMVVSTRENEYHKDFDGNTIKLERWSGDPEHGLLDLLNFLHSLHFMGIKDFRGTLRSYLGEGHHHHHH | not soluble
MSLRFNVLKYIRTTKANIQTIAMPLTTKPLSLKINAALFDVDGTIIISQPAIAAFWRDFGKDKPYFDAEHVIHISHGWRTYDAIAKFAPDFADEEYVNKLEGEIPEKYGEHSIEVPGAVKLCNALNALPKEKWAVATSGTRDMAKKWFDILKIKRPEYFITANDVKQGKPHPEPYLKGRNGLGFPINEQDPSKSKVVVFEDAPAGIAAGKAAGCKIVGIATTFDLDFLKEKGCDIIVKNHESIRVGEYNAETDEVELIFDDYLYAKDDLLKWEGHHHHHH | not soluble
